Assays:
Assay type in all cases: biochemical
[1] = HTP-analysis of supernatants pretreated with acid (MUGal hydrolysis); settings: activity of the variant/activity of Rd4BB (SEQ ID NO: 15); challenge at pH 3.7
Summary of the method: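 Yeast INVSc1 supernatant, GLA variants; acid challenge: McIlvaine pH 3.3-4.3, 37° C., 1-3 h. Assay: MUGal in McIlvaine pH 4.8 plus citrate pH 4.3, 37° C., 30-180 min, Na2CO3 stop, Ex 355/Em 448 nm.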

[2] = HTP-analysis of supernatants pretreated with base (MUGal hydrolysis); settings: activity of the variant/activity of Rd4BB (SEQ ID NO: 15); challenge at pH 9.65
Summary of the method: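 Supernatants from INVSc1 yeast expressing GLA variants (SD-Ura, 66-84 h, 30° C) were mixed with McIlvaine buffer pH 7.0-8.2 or 200 mM sodium bicarbonate pH 9.1-9.7 and held 1-18 h at 37° C. Residual activity was then measured on MUGal at pH 4.8/4.3, 37° C, 30-180 min, by fluorescence (Ex 355/Em 448 nm).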

[3] = HTP-analysis of yeast culture supernatants, no challenge (MUGal hydrolysis); settings: activity of the variant/activity of Rd4BB (SEQ ID NO: 15)
Summary of the method: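 GLA variants expressed in yeast INVSc1, secreted into SD-Ura broth over 66-84 h at 30° C; clarified supernatants tested without challenge. Supernatant mixed with McIlvaine buffer pH 4.8 and 2 mM MUGal (citrate/KCl, pH 4.6), 37° C for 30-180 min, carbonate-quenched, fluorescence Ex 355/Em 448 nm.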

Molecule	Relative Activity of GLA Variants After Challenge at pH 3.7 [1]	Relative Activity of GLA Variants After Challenge at pH 9.65 [2]	Relative Activity of GLA Variants After No Challenge (NC) [3]
492 (protein, Synthetic Polypeptide sequence of Variant No. 492 of mature Human GLA) LDNGLARTPTMGWLHWERFMCNLDCQEEPDSCISEKLFMEMAERMVSEGWKDAGYEYLCIDDCWMAPQRDSEGRLQADPQRFPHGIRQLANYVHSKGLKLGIYADVGNKTCAGFPGSFGYYDIDAQTFADWGVDLLKFDGCYCDSLENLADGYKHMSLALNRTGRSIVYSCEWPLYMWPFQKPNYTEIRQYCNHWRNFADIDDSWKSIKSILDWTSFNQERIVDVAGPGGWNDPDMLVIGNFGLSWNQQVTQMALWAIMAAPLFMSNDLRHISPQAKALLQDKDVIAINQDPLGKQGYQLRQGDNFEVWERPLSGLAWAVAMINRQEIGGPRSYTIAVASLGKGVACNPACFITQLLPVKRKLGFYEWTSRLRSHINPTGTVLLQLENCMQMSLKDLL	+ (0.5 to 1.5 relative activity over Rd4BB (SEQ ID NO: 15))	+ (0.5 to 1.5 relative activity over Rd4BB (SEQ ID NO: 15))	+ (0.5 to 1.5 relative activity over Rd4BB (SEQ ID NO: 15))
497 (protein, Synthetic Polypeptide sequence of Variant No. 497 of mature Human GLA) LDNGLARTPTMGWLHWERFMCNLDCQEEPDSCISEKLFMEMAERMVSEGWKDAGYEYLCIDDCWMAPQRDSEGRLQADPQRFPHGIRQLANYVHSKGLKLGIYADVGNKTCAGFPGSFGYYDIDAQTFADWGVDLLKFDGCYCDSLENLADGYKHMSLALNRTGRSIVYSCEWPLYMWPFQKPNYTEIRQYCNHWRNFADIDDSWKSIKSILDWTSFNQERIVDVAGPGGWNDPDMLVIGNFGLSWNQQVTQMALWAIMAAPLFMSNDLRHISPQAKALLQDKDVIAINQDPLGKQGYQLRQGDNFEVWERPLSGLAWAVAMINRQEIGGPRSYTIAVASLGKGVACNPACFITQLLPVKRKLGFYEWTSRLRSHINPTGTVLLQLENTKQMSLKDLL	++ (>1.5 to 2.5 relative activity over Rd4BB (SEQ ID NO: 15))	+ (0.5 to 1.5 relative activity over Rd4BB (SEQ ID NO: 15))	+ (0.5 to 1.5 relative activity over Rd4BB (SEQ ID NO: 15))
493 (protein, Synthetic Polypeptide sequence of Variant No. 493 of mature Human GLA) LDNGLARTPTMGWLHWERFMCNLDCQEEPDSCISEKLFMEMAERMVSEGWKDAGYEYLCIDDCWMAPQRDSEGRLQADPQRFPHGIRQLANYVHSKGLKLGIYADVGNKTCAGFPGSFGYYDIDAQTFADWGVDLLKFDGCYCDSLENLADGYKHMSLALNRTGRSIVYSCEWPLYMWPFQKPNYTEIRQYCNHWRNFADIDDSWKSIKSILDWTSFNQERIVDVAGPGGWNDPDMLVIGNFGLSWNQQVTQMALWAIMAAPLFMSNDLRHISPQAKALLQDKDVIAINQDPLGKQGYQLRQGDNFEVWERPLSGLAWAVAMINRQEIGGPRSYTIAVASLGKGVACNPACFITQLLPVKRKLGFYEWTSRLRSHINPTGTVLLQLENTMQPSLKDLL	+ (0.5 to 1.5 relative activity over Rd4BB (SEQ ID NO: 15))	+ (0.5 to 1.5 relative activity over Rd4BB (SEQ ID NO: 15))	+ (0.5 to 1.5 relative activity over Rd4BB (SEQ ID NO: 15))
494 (protein, Synthetic Polypeptide sequence of Variant No. 494 of mature Human GLA) LDNGLARTPTMGWLHWERFMCNLDCQEEPDSCISEKLFMEMAERMVSEGWKDAGYEYLCIDDCWMAPQRDSEGRLQADPQRFPHGIRQLANYVHSKGLKLGIYADVGNKTCAGFPGSFGYYDIDAQTFADWGVDLLKFDGCYCDSLENLADGYKHMSLALNRTGRSIVYSCEWPLYMWPFQKPNYTEIRQYCNHWRNFADIDDSWKSIKSILDWTSFNQERIVDVAGPGGWNDPDMLVIGNFGLSWNQQVTQMALWAIMAAPLFMSNDLRHISPQAKALLQDKDVIAINQDPLGKQGYQLRQGDNFEVWERPLSGLAWAVAMINRQEIGGPRSYTIAVASLGKGVACNPACFITQLLPVKRKLGFYEWTSRLRSHINPTGTVLLQLENTFQMSLKDLL	+ (0.5 to 1.5 relative activity over Rd4BB (SEQ ID NO: 15))	+ (0.5 to 1.5 relative activity over Rd4BB (SEQ ID NO: 15))	+ (0.5 to 1.5 relative activity over Rd4BB (SEQ ID NO: 15))
495 (protein, Synthetic Polypeptide sequence of Variant No. 495 of mature Human GLA) LDNGLARTPTMGWLHWERFMCNLDCQEEPDSCISEKLFMEMAERMVSEGWKDAGYEYLCIDDCWMAPQRDSEGRLQADPQRFPHGIRQLANYVHSKGLKLGIYADVGNKTCAGFPGSFGYYDIDAQTFADWGVDLLKFDGCYCDSLENLADGYKHMSLALNRTGRSIVYSCEWPLYMWPFQKPNYTEIRQYCNHWRNFADIDDSWKSIKSILDWTSFNQERIVDVAGPGGWNDPDMLVIGNFGLSWNQQVTQMALWAIMAAPLFMSNDLRHISPQAKALLQDKDVIAINQDPLGKQGYQLRQGDNFEVWERPLSGLAWAVAMINRQEIGGPRSYTIAVASLGKGVACNPACFITQLLPVKRKLGFYEWTSRLRSHINPTGTVLLQLENPMQMSLKDLL	+ (0.5 to 1.5 relative activity over Rd4BB (SEQ ID NO: 15))	+ (0.5 to 1.5 relative activity over Rd4BB (SEQ ID NO: 15))	+ (0.5 to 1.5 relative activity over Rd4BB (SEQ ID NO: 15))
496 (protein, Synthetic Polypeptide sequence of Variant No. 496 of mature Human GLA) LDNGLARTPTMGWLHWERFMCNLDCQEEPDSCISEKLFMEMAERMVSEGWKDAGYEYLCIDDCWMAPQRDSEGRLQADPQRFPHGIRQLANYVHSKGLKLGIYADVGNKTCAGFPGSFGYYDIDAQTFADWGVDLLKFDGCYCDSLENLADGYKHMSLALNRTGRSIVYSCEWPLYMWPFQKPNYTEIRQYCNHWRNFADIDDSWKSIKSILDWTSFNQERIVDVAGPGGWNDPDMLVIGNFGLSWNQQVTQMALWAIMAAPLFMSNDLRHISPQAKALLQDKDVIAINQDPLGKQGYQLRQGDNFEVWERPLSGLAWAVAMINRQEIGGPRSYTIAVASLGKGVACNPACFITQLLPVKRKLGFYEWTSRLRSHINPTGTVLLQLENTVQMSLKDLL	+ (0.5 to 1.5 relative activity over Rd4BB (SEQ ID NO: 15))	+ (0.5 to 1.5 relative activity over Rd4BB (SEQ ID NO: 15))	+ (0.5 to 1.5 relative activity over Rd4BB (SEQ ID NO: 15))
